Results published in paper PMC5095173, “Disulfide-activated protein kinase G Iα regulates cardiac diastolic relaxation and fine-tunes the Frank–Starling response” (Nature Communications, 2016).

Assays:
[1] = system: PKGIα (analogue-sensitive M438G), disulfide-activated; assay: Chemical genetic phosphoproteomic screen, disulfide-activated PKGIα M438G versus unactivated control; format: biochemical, human PKGIα; substrates in rat heart homogenate; settings: control = PKGIα C42S/M438G
Outline: (§1)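 Analogue-sensitive human PKGIα mutants (M438G, air-oxidized to disulfide dimer; C42S/M438G, cGMP-activated), expressed in 293-F cells, thiophosphorylate substrates in rat left-ventricle lysate (20 mg ml) using N6-alkylated ATPγS. Thiophosphopeptides are recovered by covalent capture and identified with sites by LC–MS/MS, each compared against an unactivated control.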

[2] = system: PKGIα (analogue-sensitive C42S/M438G), cGMP-activated; assay: Chemical genetic phosphoproteomic screen, cGMP-activated PKGIα C42S/M438G versus unactivated control; format: biochemical, human PKGIα; substrates in rat heart homogenate; settings: control = PKGIα C42S/M438G
Outline: as §1

Molecule	log2 fold change Disulfide vs Control [1]	log2 fold change cGMP vs Control [2]
Ptrf pT304 (protein, UniProt P85125 1-392, looked up, phosphorylated at T304) Caveolae-associated protein 1: MEDVTLHIVERPYSGYPDASSEGPEPTPGEARATEEPSGTGSDELIKSDQVNGVLVLSLLDKIIGAVDQIQLTQAQLEERQAEMEGAVQSIQGELSKLGKAHATTSNTVSKLLEKVRKVSVNVKTVRGSLERQAGQIKKLEVNEAELLRRRNFKVMIYQDEVKLPAKLSVSKSLKESEALPEKEGDELGEGERPEEDAAAIELSSDEAVEVEEVIEESRAERIKRSGLRRVDDFKKAFSKEKMEKTKVRTRENLEKTRLKTKENLEKTRHTLEKRMNKLGTRLVPVERREKLKTSRDKLRKSFTPDHVVYARSKTAVYKVPPFTFHVKKIREGEVEVLKATEMVEVGPDDDEVGAERGAETDLLRGSSPDVHTLLEITEESDAVLVDKSDSD	1.3031	3.045
Ptrf pS171 (protein, UniProt P85125 1-392, looked up, phosphorylated at S171) Caveolae-associated protein 1: MEDVTLHIVERPYSGYPDASSEGPEPTPGEARATEEPSGTGSDELIKSDQVNGVLVLSLLDKIIGAVDQIQLTQAQLEERQAEMEGAVQSIQGELSKLGKAHATTSNTVSKLLEKVRKVSVNVKTVRGSLERQAGQIKKLEVNEAELLRRRNFKVMIYQDEVKLPAKLSVSKSLKESEALPEKEGDELGEGERPEEDAAAIELSSDEAVEVEEVIEESRAERIKRSGLRRVDDFKKAFSKEKMEKTKVRTRENLEKTRLKTKENLEKTRHTLEKRMNKLGTRLVPVERREKLKTSRDKLRKSFTPDHVVYARSKTAVYKVPPFTFHVKKIREGEVEVLKATEMVEVGPDDDEVGAERGAETDLLRGSSPDVHTLLEITEESDAVLVDKSDSD	-0.2713	3.564
Ptrf pS169 (protein, UniProt P85125 1-392, looked up, phosphorylated at S169) Caveolae-associated protein 1: MEDVTLHIVERPYSGYPDASSEGPEPTPGEARATEEPSGTGSDELIKSDQVNGVLVLSLLDKIIGAVDQIQLTQAQLEERQAEMEGAVQSIQGELSKLGKAHATTSNTVSKLLEKVRKVSVNVKTVRGSLERQAGQIKKLEVNEAELLRRRNFKVMIYQDEVKLPAKLSVSKSLKESEALPEKEGDELGEGERPEEDAAAIELSSDEAVEVEEVIEESRAERIKRSGLRRVDDFKKAFSKEKMEKTKVRTRENLEKTRLKTKENLEKTRHTLEKRMNKLGTRLVPVERREKLKTSRDKLRKSFTPDHVVYARSKTAVYKVPPFTFHVKKIREGEVEVLKATEMVEVGPDDDEVGAERGAETDLLRGSSPDVHTLLEITEESDAVLVDKSDSD	2.165	4.006
Ptrf pS302 (protein, UniProt P85125 1-392, looked up, phosphorylated at S302) Caveolae-associated protein 1: MEDVTLHIVERPYSGYPDASSEGPEPTPGEARATEEPSGTGSDELIKSDQVNGVLVLSLLDKIIGAVDQIQLTQAQLEERQAEMEGAVQSIQGELSKLGKAHATTSNTVSKLLEKVRKVSVNVKTVRGSLERQAGQIKKLEVNEAELLRRRNFKVMIYQDEVKLPAKLSVSKSLKESEALPEKEGDELGEGERPEEDAAAIELSSDEAVEVEEVIEESRAERIKRSGLRRVDDFKKAFSKEKMEKTKVRTRENLEKTRLKTKENLEKTRHTLEKRMNKLGTRLVPVERREKLKTSRDKLRKSFTPDHVVYARSKTAVYKVPPFTFHVKKIREGEVEVLKATEMVEVGPDDDEVGAERGAETDLLRGSSPDVHTLLEITEESDAVLVDKSDSD	1.32	3.161
Micall1 pS307 (protein, UniProt D3ZQL6 1-855, looked up, phosphorylated at S307) MICAL-like protein 1: MAGPRGALLAWCRRQCEGYRGVDIRDLSSSFRDGLAFCAILHRHRPDLLDFQSLSKENVFENNRLAFEVAEKELGIPALLDPNDMVSMSVPDCLSIMTYVSQYYNHFTSSGQAAASPPKPGKDPAAPSPTSTSPAVQPGEEAQGDDLSPDSLSEQGKPQPPSSACAACGQRVHLVQRYLAEGRLYHRHCFRCRQCSSTLVPGSYSSGPEEGTFVCAERCTRLGLGGRSGTRPLSLQKQQPAAAAEAKDGEDSDLSKSVVVVAAEADGLQASSEVQPHTLTKPPLPSKPQDLASPPVSRPTPAPRKASESSALTPPTPRPRSSLQQDGMVEQSVSGDLVNGRLQELPVPKPRGTPKLSERMTAPRKDPPWITLVQTEPKKKPAPLPPSSGPGPLSQASRQVENGGLEEKTQKSPAAEPEPKPYNPFEEEEEEEEASVPAVPSPAPAPPETTPKSLHPWYNITPTSSPKTKKRPAPKAPSASPLVLHASRLSHSEPPSATPSPALSVESLSSESSSHTANTEPSEPPAVPKSSSDPAVHVPGTPGTSANSVTPSAHSSLSSSGELGQPSGEQMPQARTRGSPGTHSTKPFSGATPTPFLLAGDQKSPAPPMGSSSPQMLIKSSCKENPFNRKPSPSTSPTVRKATKGAKPVRPPAPGHGFPLIKRKVQADQYIPEEDIYGEMDSIERQLDALEHSGVLLEEKLRGGANEGSEDDMLVDWFKLIHEKHLLVRRESELIYVFKQQNLEQRQADVEFELRCLLNKPEKDWTDDDRAREKVLMQELMTLIEQRDAIVNCLDEDRQREEEEDKMLETMIKKKDFQREAESDSKKKGKFKTMKVLKLLGNKRDAKSKAPTGKS	1.417	2.266
Mylk3 pS444 (protein, UniProt E9PT87 1-786, looked up, phosphorylated at S444) Myosin light chain kinase 3: MSGVSEEDPEGLGPQGLPALGGACLVTVDKKLNVLTEKVDRLLHFQEDVTEKLQCVCQGMDHLEQGLHRLEASQELGLAGPGSTSPAAAQAAWPEVLELVRAVRQEGAQHGARLEALFKMVVAVDRAITLVGSTIQNSKVDDFILQGTVPWRKGSLADGPEENKEQAEVAGVKPKHVLNTGSVQAATSRALWEESQKQDTPVGTVEGLPLIIDTSLKGADLTQAGASLRQGVEALDPGQEPPPTEAESRLPALASEDTGTTLELSVAIDRISEVLTSLRMSQSAGEGTSSSKPDCSEPGPQPLGPLTTDSDIHSDEGLPRISVRMREMTTPEELFETQGGSPIGSAEAPGPGTVLEDQIPKGARPFPPLPKRSCNNGGASAEEATGPGAEPIRGPSLVTRDWRDEPVGTTDLQQGRDPGAVSPEPGKDHAAQGPGRTEAGRRVSSAAEAAIVVLDDSAAPPAPFEHRVVSIKDTLISTSYTVSQHEVLGGGRFGQVHRCTERSTGLALAAKIIKVKNIKDREDVKNEINIMNQLSHVNLIQLYDAFESKNSFTLIMEYVDGGELFDRITDEKYHLTELDVVLFTRQICEGVHYLHQHYILHLDLKPENILCVSQTGHQIKIIDFGLARRYKPREKLKVNFGTPEFLAPEVVNYEFVSFPTDMWSVGVITYMLLSGLSPFLGETDAETMNFIVNCSWDFDADTFKGLSEEAKDFVSRLLVKEKSCRMSATQCLKHEWLNHLIAKASGSNVRLRSQLLLQKYMAQRKWKKHFHVVTAVNRLRKFPTCP	0.1624	3.077
Serbp1 pS391 (protein, UniProt Q9CY58 1-407, looked up, phosphorylated S391) SERPINE1 mRNA-binding protein …: MPGHLQEGFGCVVTNRFDQLFDDESDPFEVLKAAENKKKEAGGGGVGGPGAKSAAQAAAQTNSNAAGKQLRKESQKDRKNPLPPSVGVADKKEETQPPVALKKEGIRRVGRRPDQQLQGDGKLIDRRAERRPPRERRFEKPLEEKGEGGEFSVDRPIIERPIRGRGGLGRGRGGRGRGMGRGDGFDSRGKREFDRHSGSDRSSFSHYSGLKHEDKRGGSGSHNWGTVKDELTESPKYIQKQISYNCSDLDQSNVTEETPEGEEHPVADTENKENEVEEVKEEGPKEMTLDEWKAIQNKDRAKVEFNIRKPNEGADGQWKKGFVLHKSKSEEAHAEDSVMDHHFRKPANDITSQLEINFGDLGRPGRGGRGGRGGRGRGGRPNRGSRTDKSSASAPDVDDPEAFPALA	3.516	6.458
Murc pS257 (protein, UniProt B1PRL5 1-362, looked up, phosphorylated at S257) Caveolae-associated protein 4: MEHNGSASNAGKIHQNRLSSVTEDEDQDAALTIVTVLDRVATVVDSVQASQKRIEERHREMGNAIKSVQIDLLKLSQSHSNTGYVVNKLFEKTRKVSAHIKDVKARVEKQQVRVTKVETKQEEIMKKNKFRVVIFQEDVPCPASLSVVKDRSLPENEEEAEEVFDPPIDLSSDEEYYVEESRSARLRKSGKEHIDHIKKAFSKENMQKTRQNFDKKVSGIRTRIVTPERRERLRQSGERLRQSGERLRQSGERFKKSISNATPSKEAFKIRSLRKPKDPKAEGQEVDRGMGVDIISGSLALGPIHEFHSDGFSETEKEVTKVGYIPQEGGDPPTPEPLKVTFKPQVRVEDDESLLLELKQSS	0.9013	1.807
Map4 pT899 (protein, UniProt Q5M7W5 2-1057, looked up, phosphorylated at T899) Microtubule-associated …: ADLSLVDALTEPPPEIEGEIKRDFMAALEAEPYDDIVGETVEKTEFIPLLDGDEKSGNSESKRKPCVDTSQVEDIPSSKPTLLANGDHGVEGNNTTGSPTDFLVENVDYEDYQNSQSWPEDASFCFQPQQVLDTNQADPFNVHHDDGLADLLFVSSGPTNASAFIEENNPLEDSYGVLPCDSFAPTAVVSQEWSVGAPDSPHSEPCVSPEVTIETAQPATELSKAVDLESVKEQLPAKALEMMAGQTTDAVPSKESEGSPDTDAAPGPDTDVTLTKDIEESSSPDVISANVTQPFTESDMFLTQEMELLIGTEAAQVKDTMSSVEPDISSAKNTAPPTEEETVPGKDMTFPKEAETALPIEMDLAPPEDVALPKETELELAPAAGTAPLSETEVALAKDEEPSTGIPAAQEMLLSSETEVVLPSDSIMTLTKEVTVPLEAAGPLVSDMTAILETEMTLGGGTATPTETKLGKVKDMAPLPESEVALGKDVVTLPETKVTEFNNVTPLSEEEVASIKDVSPSPETETAKNADLHSGTELTLDNSMTPPSDPALPLETKVATVQIKDKETVQTQEELSEDSQLESVQLEGQSAVPPCTISPEPVKAADQKSTLPVDEGSPLEKLEQKETSGSQPPELCSGVSRQEEGKAAVGLTGNDIATPPNKELPPSPEKKAKPLATTQPAKTSTSKAKIQPTSLPKQPAPTTSGGLNKKPMSLASGSVPAAPHKRPAAATATARPSTLPARDLKPKPITETKVAEKRTSPSKPSSAPALRPGPKTTPTISKATSPSTLVSTGSSSRSPSTTLPKRPTTTKTEGKPADVKRMTAKSATADLSRSKTTSASSVKRNTTPTGATPPAGMASTRVKPMSAPCRSSVALSVDKKPTSTKPSSSAPRVSRLATTVSAPDLKSVRSKVGSTENMKHQPGGGRVQIQNKKVDISKVSSKCGSKANIKHKPGGGDVKIESQKLNFKEKAQAKVGSLDNVGHLPAGGTVKTEGGGSEAPPCPGPPAGEEPAIPEAAPDAGAPTSASGLSGHTTLSGGGDQREPQTLDSQIQETSI	1.73	3.693
